The source of these data is patent US8153410B2, “Alternate morpheein forms of allosteric proteins as a target for the development of bioactive molecules” (Fox Chase Cancer Center, priority 2003, dated 2012).

“Also recorded” adds a separate entry of the source. Where two headings read alike, the source gives them in different places.

What all share (format): biochemical
In series [1] the target is T1, pea PBGS (Pisum sativum, UniProt P30124, C394A).
T1 construct: made in house
In words: native PAGE gel shift of pea PBGS octamer/hexamer equilibrium. Particulars: pea PBGS C326A hexamer, rosmarinic acid 12.5 μM-12.5 mM preincubated 30 min 37 C, then 1 mM ALA and 1 mM MgCl2. As for the experimental part: (§1) FIG. 32(a) The inhibitor morphlock-1 is illustrated as posed by Glide. The subunits A, B, and E are illustrated as ribbon diagram. Morphlock-1 is shown with carbon atoms and illustrated as ball and stick. FIG. 32(b) The chemical structure of morphlock-1. […] Pea PBGS was incubated with various concentrations of morphlock-1 (in a DMSO solution). Each concentration of morphlock-1 with a fixed amount of DMSO was incubated with protein for 30 minutes at 37° C. prior to resolution on 12.5% polyacrylamide native PhastGels. […] (d) The protein concentration dependence of pea PBGS specific activity is illustrated. PBGS (at varied concentrations) was incubated in the presence of DMSO (●) or 50 μM morphlock-1 in DMSO (∘) for 30 minutes at 37° C. prior to assay. The final concentration of morphlock-1 in the inhibited assay was 5 μM, and the concentration of PBGS in the inhibited and control assays ranged from 0.05-50 μg/mL (0.014-1.4 μM).
FIG. 34(b) Hexameric pea PBGS (1 mg/mL, prepared by dialysis against low ionic strength) was incubated with DMSO (left) or 500 μM morphlock-1 (right) for 30 minutes at 37° C. ALA was added at the indicated concentrations, and the incubation was continued for 30 minutes prior to resolution on 12.5% polyacrylamide native PhastGels. […] Morphlock-1 concentrations are listed at the top of each lane. Protein samples for left-most gel were at 50 μg/ml (1.4 μM subunit) and 1 mM ALA; protein detection is by silver staining. Samples for the middle gel were also at 50 μg/ml (1.4 μM subunit) and 1 mM ALA; the gel was activity stained. Samples for the right-most gel were at 5 μg/ml (0.14 μM subunit) and 10 mM magnesium; protein detection is by Krypton Infrared staining.
FIG. 41 illustrates native PAGE screening of compounds. Octameric PBGS (1 mg/mL) was incubated with DMSO or 2 mM of each compound for 30 minutes at 37° C. prior to resolution on 12.5% polyacrylamide native PhastGels. […] Each compound is identified by its box address. The compound B6 is morphlock-1.
The interconversion of pea PBGS hexamer and octamer is a dynamic equilibrium that responds to protein concentration, substrate concentration, magnesium concentration, inhibitor concentration, and ionic strength.

Series [2] deals with T2, pea PBGS (Pisum sativum, UniProt P30124).
T2 sequence (P30124 69-398 limits assumed): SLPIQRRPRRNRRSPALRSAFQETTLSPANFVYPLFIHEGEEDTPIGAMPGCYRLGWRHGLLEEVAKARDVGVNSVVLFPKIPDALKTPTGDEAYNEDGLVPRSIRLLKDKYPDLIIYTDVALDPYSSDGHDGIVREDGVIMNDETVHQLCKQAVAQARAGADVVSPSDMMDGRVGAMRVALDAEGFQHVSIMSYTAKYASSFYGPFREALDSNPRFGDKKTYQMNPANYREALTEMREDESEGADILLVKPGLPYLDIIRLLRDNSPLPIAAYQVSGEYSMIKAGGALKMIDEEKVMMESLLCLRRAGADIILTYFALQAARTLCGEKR
In words: pea PBGS activity assay (inhibition, protein concentration dependent specific activity). On the set-up: made in house. As for the experimental part: as §1, with “PBGS (at varied concentrations) was incubated in the presence of DMSO (●) or 50 μM morphlock-1 in DMSO (∘) for 30 minutes at 37° C. prior to assay.” left out
The proteins were incubated in the presence of 10× inhibitor for 30 minutes at 37° C. prior to assay. The concentrations on the X-axis represent the final concentration of morphlock-1 in the assay. FIG. 33(b). […] IC50 values were determined as per part (a) using the noted concentrations of pea PBGS. (c) Native PAGE evaluation of the effect of morphlock-1 on the quaternary structure equilibria of PBGS (˜1 mg/ml) from D. melanogaster, P. aeruginosa, V. cholerae, and H. sapiens. Note that the charge/mass ratio is not the same for PBGS from different species.
The dose response curve for morphlock-1 inhibition of pea PBGS (FIG. 37a) was initially carried out at 0.03 μM pea PBGS, where the hexamer is a significant component of the equilibrium mixture; the morphlock-1 concentration was varied from 0.1 μM to 0.1 mM.
The dose response curve for morphlock-1 inhibition of pea PBGS (FIG. 33(a)) was initially carried out at 0.03 μM pea PBGS, where the hexamer is a significant component of the equilibrium, in order to optimize the observed inhibition; the morphlock-1 concentration was varied from 0.1 μM to 0.1 mM.

Series [3] deals with human PBGS. Nature of the series: kinetic characterization (Km, Vmax, specific activity) of human PBGS variants with substrate ALA. Particulars: for Km1 / Vmax1: Table 1; for Vmax2 / Km: Table 3; for Km: read-out: Km2 (Km for the hexamer). As for the experimental part:
All kinetic determinations were carried out in 0.1 M bis-tris propane, 10 mM 2-mercaptoethanol, 10 μM Zn. For the pH rate profiles, the reported pH reflects the assay pH after the addition of 10 mM ALA-HCl. For Km and Vmax determinations, concentrations of ALA were 10 μM, 30 μM, 100 μM, 300 μM, 1 mM, 3 mM, and 10 mM and were each done in duplicate. […] All assays were at 37° C. for a fixed time using Ehrlich's reagent to determine porphobilinogen formed.
The kinetic parameters Km and Vmax of the S300 purified pools were determined at pH 7 and at pH 9 (Table 3 contains data for hetero-hexamers (Pool I) initially at 70% Leu and 30% Phe and for hetero-octamers (Pool II) initially at 30% Leu and 70% Phe). […] With the exception of the trace amount of octamer present for Pool I that is detected at pH 9, all the kinetic values are well determined (see Table 3). […] The factors that govern equilibration of human PBGS heteromers under assay conditions remain to be elucidated.
Km1 and Km2 (both mM) are interpreted as the Km for the octamer and hexamer, respectively.
Using freshly prepared hetero-oligomers of WT+F12L, the Pool I and Pool II proteins were separated chromatographically and then dialyzed for 24 hours at pH 7 in the presence of 10 mM ALA. Following dialysis, the re-equilibrated hetero-oligomers were again separated into their hexameric and octameric components by chromatography on a Mono-Q column. The separated proteins were characterized for their specific activity and for their Phe12 and Leu12 content. The specific activity of hexamer and octamer are dramatically different with hexamer showing optimal activity at pH 9 and the activity of octamer is maximal at pH 7 (Table 4). […] Following chromatographic separation, the proteins were called Pool I hexamer, Pool I octamer, Pool II hexamer, and Pool II octamer and are described below. The peak to elute first on the Mono-Q column runs comparably to the F12L mutant, which is the hexamer. The hexameric structure is substantiated by native gel electrophoresis and by specific activity at pH 7 and pH 9 (FIG. 26A and Table 4). The second peak to elute runs comparably to the WT human PBGS, which is the octamer. The octameric structure is substantiated by native gel electrophoresis and specific activity at pH 7 and pH 9 (FIG. 26A and Table 4). Consistent with the documented characteristics of human PBGS hexamers and octamers, Pool I hexamer and Pool II hexamer have very low activity at pH 7 and considerable activity at pH 9. Pool I octamer and Pool II octamer both show substantially higher activity at pH 7 than at pH 9.

Series [4] concerns human PBGS. Nature of the series: temperature dependence (Arrhenius plots) of hetero-hexamer to hetero-octamer conversion and of substrate turnover. Particulars: pH 7.0, 10 mM ALA-HCl. The text has this:
To determine the free energy of activation for the conversion of hetero-hexamers to hetero-octamers, we took advantage of the dramatic differences in the activity of octameric (high activity) and hexameric (low activity) human PBGS at pH 7.0 (3, 5). Because of this difference, the transition from purified hetero-hexamers to a mixture of hetero-hexamers and hetero-octamers under turnover conditions is accompanied by a progressive increase in the specific activity; this process was monitored at several temperatures. Starting with purified hetero-hexamers, (FIG. 34a) the specific activity increased, which is fit to a first-order exponential as exemplified in FIG. 35b (5). […] The time-courses for conversion of hetero-hexamer to hetero-octamer were monitored by periodically removing aliquots from the incubations and immediately quantifying porphobilinogen using Ehrlich's reagent and calculating specific activities based on the total incubation time. […] An activation energy for hetero-hexamer to hetero-octamer conversion (Ea=63±5 kJ/mol) was determined from the slope of the plot. […] However, we previously monitored this process at 5 μg/ml and 0.9 mg/ml, two widely different enzyme concentrations, by specific activity increase and dynamic light scattering respectively. […]

T1 sequence (P30124 69-398 C394A): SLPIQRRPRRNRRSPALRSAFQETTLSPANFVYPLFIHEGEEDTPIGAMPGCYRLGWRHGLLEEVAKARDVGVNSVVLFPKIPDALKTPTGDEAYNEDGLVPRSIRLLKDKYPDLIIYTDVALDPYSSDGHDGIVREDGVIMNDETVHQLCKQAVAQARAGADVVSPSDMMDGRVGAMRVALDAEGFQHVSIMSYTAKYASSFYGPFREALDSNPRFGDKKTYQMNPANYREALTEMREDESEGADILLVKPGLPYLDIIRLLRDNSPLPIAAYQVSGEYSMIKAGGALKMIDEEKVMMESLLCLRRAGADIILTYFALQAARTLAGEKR

In the case of `O=C(/C=C/c1ccc(O)c(O)c1)O[C@H](Cc1ccc(O)c(O)c1)C(=O)O` [rosmarinic acid, benzenepropanoic acid, α-[[(2E)-3-(3,4-dihydroxyphenyl)-1-oxo-2-propenyl]oxy]-3,4-dihydroxy-, (αR)-(9CI), reference compound], the “native gel: conversion of hexamer to octamer by ALA and magnesium” value on pea PBGS [1] is given as “prevent conversion of the hexamer to the octamer; also recorded: stabilizes the hexameric pea PBGS against conversion to the octamer”. Moreover, at pea PBGS [2], the IC50 is around 63 µM and the “mode of inhibition (dependence on preincubation time)” value was “slow-binding inhibitor”. Moreover, the “PBGS concentration giving half maximal specific activity after rosmarinic acid treatment” value at pea PBGS [2] (30 minute treatment with 30 μM rosmarinic acid, untreated 3.5 μg/ml) was 13.5 µg/mL.

B1: F12L: naturally occurring rare allele variant of human PBGS, hexameric, heterologously expressed in E. coli (protein)
chain: MQPQSVLHSGYLHPLLRAWQTATTTLNASNLIYPIFVTDVPDDIQPITSLPGVARYGVNRLEEMLRPLVEEGLRCVLIFGVPSRVPKDERGSAADSEESPAIEAIHLLRKTFPNLLVACDVCLCPYTSHGHCGLLSENGAFRAEESRQRLAEVALAYAKAGAQVVAPSDMMDGRVEAIKEALMAHGLGNRVSVMSYSAKFASCFYGPFRDAAKSSPAFGDRRCYQLPPGARGLALRAVDRDVREGADMLMVKPGMPYLDIVREVKDKHPDLPLAVYHVSGEFAMLWHGAQAGAFDLKAAVLEAMTAFRRAGADIIITYYTPQLLQWLKEE
In the case of B1, in the series with human PBGS [3] (pH 7), the “Specific activities before and after substrate induced disproportionation” value was found to be 0.3 µmol/h/mg; the Km1 stood at 17.7 ± 1.1 mM; the Vmax1 is 1.14 ± 0.05; the Vmax2 stood at 1.14 ± 0.05 µmol/h/mg. Also, in the series with human PBGS [3] (pH 7), the Km was determined as 17.7 ± 1.1 mM. In the series with human PBGS [3] (pH 9), the “Specific activities before and after substrate induced disproportionation” value came out at 14.5 µmol/h/mg; the Km1 was 4.6 ± 0.1 mM; the Vmax1 is 18.2 ± 0.02; the Vmax2 is 18.2 ± 0.2 µmol/h/mg. In the series on human PBGS [3] (pH 9), the Michaelis-Menten constant (Km) was found to be 4.6 ± 0.1 mM. Moreover, the “activation energy for substrate turnover” value in the series with human PBGS [4] is 45 ± 3 kJ/mol.
